Data: the Human Domainome abundance scans (Beltran et al. 2025)
± gives the uncertainty stated by the source.

B1: Peripheral plasma membrane protein CASK, residues 488 to 569; numbered along this chain, O14936 (parent)
chain: VRLVQFQKNTDEPMGITLKMNELNHCIVARIMHGGMIHRQGTLHVGDEIREINGISVANQTVEQLQKMLREMRGSITFKIVP

Variants of: B1
Assay: abundance fitness (aPCA) (normalised: wild type 0, dead -1); higher = more abundant; growth selection in yeast, the domain comes from the species named
Details: Homo sapiens

Row | Variant | abundance fitness
1 | VRLVQFQKNTDEPMGITLTMNELNHCIVARIMHGGMIHRQGTLHVGDEIREINGISVANQTVEQLQKMLREMRGSITFKIVP [K19T] | -0.009 ± 0.03
2 | VRLVQFQKNTDEPMGITLYMNELNHCIVARIMHGGMIHRQGTLHVGDEIREINGISVANQTVEQLQKMLREMRGSITFKIVP [K19Y] | -0.01 ± 0.041
3 | VRLVQFQKNTDEPMGITLMMNELNHCIVARIMHGGMIHRQGTLHVGDEIREINGISVANQTVEQLQKMLREMRGSITFKIVP [K19M] | -0.071 ± 0.033
4 | VRLVQFQKNTDEPMGITLLMNELNHCIVARIMHGGMIHRQGTLHVGDEIREINGISVANQTVEQLQKMLREMRGSITFKIVP [K19L] | -0.026 ± 0.028
5 | VRLVQFQKNTDEPMGITLEMNELNHCIVARIMHGGMIHRQGTLHVGDEIREINGISVANQTVEQLQKMLREMRGSITFKIVP [K19E] | -0.029 ± 0.037
6 | VRLVQFQKNTDEPMGITLRMNELNHCIVARIMHGGMIHRQGTLHVGDEIREINGISVANQTVEQLQKMLREMRGSITFKIVP [K19R] | -0.017 ± 0.023
7 | VRLVQFQKNTDEPMGITLGMNELNHCIVARIMHGGMIHRQGTLHVGDEIREINGISVANQTVEQLQKMLREMRGSITFKIVP [K19G] | 0.025 ± 0.023
8 | VRLVQFQKNTDEPMGITLHMNELNHCIVARIMHGGMIHRQGTLHVGDEIREINGISVANQTVEQLQKMLREMRGSITFKIVP [K19H] | -0.01 ± 0.04
9 | VRLVQFQKNTDEPMGITLDMNELNHCIVARIMHGGMIHRQGTLHVGDEIREINGISVANQTVEQLQKMLREMRGSITFKIVP [K19D] | -0.016 ± 0.035
10 | VRLVQFQKNTDEPMGITLIMNELNHCIVARIMHGGMIHRQGTLHVGDEIREINGISVANQTVEQLQKMLREMRGSITFKIVP [K19I] | -0.102 ± 0.045
11 | VRLVQFQKNTDEPMGITLQMNELNHCIVARIMHGGMIHRQGTLHVGDEIREINGISVANQTVEQLQKMLREMRGSITFKIVP [K19Q] | -0.016 ± 0.035
12 | VRLVQFQKNTDEPMGITLFMNELNHCIVARIMHGGMIHRQGTLHVGDEIREINGISVANQTVEQLQKMLREMRGSITFKIVP [K19F] | -0.041 ± 0.036
13 | VRLVQFQKNTDEPMGITLWMNELNHCIVARIMHGGMIHRQGTLHVGDEIREINGISVANQTVEQLQKMLREMRGSITFKIVP [K19W] | -0.195 ± 0.03
14 | VRLVQFQKNTDEPMGITLVMNELNHCIVARIMHGGMIHRQGTLHVGDEIREINGISVANQTVEQLQKMLREMRGSITFKIVP [K19V] | -0.008 ± 0.025
15 | VRLVQFQKNTDEPMGITLNMNELNHCIVARIMHGGMIHRQGTLHVGDEIREINGISVANQTVEQLQKMLREMRGSITFKIVP [K19N] | -0.037 ± 0.044
16 | VRLVQFQKNTDEPMGITLCMNELNHCIVARIMHGGMIHRQGTLHVGDEIREINGISVANQTVEQLQKMLREMRGSITFKIVP [K19C] | -0.089 ± 0.036
17 | VRLVQFQKNTDEPMGITLPMNELNHCIVARIMHGGMIHRQGTLHVGDEIREINGISVANQTVEQLQKMLREMRGSITFKIVP [K19P] | -0.999 ± 0.1

Row | Variant | abundance fitness
18 | VRLVQFQKNTDEPMGITLAMNELNHCIVARIMHGGMIHRQGTLHVGDEIREINGISVANQTVEQLQKMLREMRGSITFKIVP [K19A] | 0.022 ± 0.026
19 | VRLVQFQKNTDEPMGITWKMNELNHCIVARIMHGGMIHRQGTLHVGDEIREINGISVANQTVEQLQKMLREMRGSITFKIVP [L18W] | -0.492 ± 0.05
20 | VRLVQFQKNTDEPMGITYKMNELNHCIVARIMHGGMIHRQGTLHVGDEIREINGISVANQTVEQLQKMLREMRGSITFKIVP [L18Y] | -0.277 ± 0.15
21 | VRLVQFQKNTDEPMGITLKHNELNHCIVARIMHGGMIHRQGTLHVGDEIREINGISVANQTVEQLQKMLREMRGSITFKIVP [M20H] | -0.038 ± 0.062
22 | VRLVQFQKNTDEPMGITLKQNELNHCIVARIMHGGMIHRQGTLHVGDEIREINGISVANQTVEQLQKMLREMRGSITFKIVP [M20Q] | -0.059 ± 0.038
23 | VRLVQFQKNTDEPMGITLKFNELNHCIVARIMHGGMIHRQGTLHVGDEIREINGISVANQTVEQLQKMLREMRGSITFKIVP [M20F] | 0.026 ± 0.059
24 | VRLVQFQKNTDEPMGITLKANELNHCIVARIMHGGMIHRQGTLHVGDEIREINGISVANQTVEQLQKMLREMRGSITFKIVP [M20A] | -0.128 ± 0.032
25 | VRLVQFQKNTDEPMGITLKCNELNHCIVARIMHGGMIHRQGTLHVGDEIREINGISVANQTVEQLQKMLREMRGSITFKIVP [M20C] | -0.19 ± 0.047
26 | VRLVQFQKNTDEPMGITLKGNELNHCIVARIMHGGMIHRQGTLHVGDEIREINGISVANQTVEQLQKMLREMRGSITFKIVP [M20G] | -0.453 ± 0.031
27 | VRLVQFQKNTDEPMGITLKLNELNHCIVARIMHGGMIHRQGTLHVGDEIREINGISVANQTVEQLQKMLREMRGSITFKIVP [M20L] | -0.016 ± 0.032
28 | VRLVQFQKNTDEPMGITLKPNELNHCIVARIMHGGMIHRQGTLHVGDEIREINGISVANQTVEQLQKMLREMRGSITFKIVP [M20P] | -0.325 ± 0.046
29 | VRLVQFQKNTDEPMGITLKRNELNHCIVARIMHGGMIHRQGTLHVGDEIREINGISVANQTVEQLQKMLREMRGSITFKIVP [M20R] | -0.034 ± 0.024
30 | VRLVQFQKNTDEPMGITLKINELNHCIVARIMHGGMIHRQGTLHVGDEIREINGISVANQTVEQLQKMLREMRGSITFKIVP [M20I] | -0.036 ± 0.053
31 | VRLVQFQKNTDEPMGITLKKNELNHCIVARIMHGGMIHRQGTLHVGDEIREINGISVANQTVEQLQKMLREMRGSITFKIVP [M20K] | 0.034 ± 0.029
32 | VRLVQFQKNTDEPMGITLKNNELNHCIVARIMHGGMIHRQGTLHVGDEIREINGISVANQTVEQLQKMLREMRGSITFKIVP [M20N] | -0.16 ± 0.076
33 | VRLVQFQKNTDEPMGITLKDNELNHCIVARIMHGGMIHRQGTLHVGDEIREINGISVANQTVEQLQKMLREMRGSITFKIVP [M20D] | -0.489 ± 0.068
34 | VRLVQFQKNTDEPMGITLKENELNHCIVARIMHGGMIHRQGTLHVGDEIREINGISVANQTVEQLQKMLREMRGSITFKIVP [M20E] | -0.302 ± 0.042
